For 2 substances, Kd results are on record in publication PMC6901573.

Experiment [1] addresses Human hemoglobin A, reduced oxygenated form (OxyHb) (human) (UniProt P69905). Description: SEC; tetramer to dimers; HiLoad 16/600 Superdex 75 in reaction buffer (Tris/HCl 100 mM, NaCl 150 mM, EDTA 1 mM, pH 8.0); Hb in the oxy and met forms injected at different concentrations.
Experiment [2] concerns the target Human hemoglobin A, oxidized form (methemoglobin, MetHb) (human) (UniProt P69905). The experiment is described as above.

Take “Human hemoglobin A, reduced oxygenated form (OxyHb), P69905 1-142; P68871 1-147 (complex; other documents disagree on this pair)”: the Kd in experiment [1] came to 250 nM.
“Human hemoglobin A, oxidized form (methemoglobin, MetHb), P69905 1-142; P68871 1-147 (complex; other documents disagree on this pair)” returned a Kd in experiment [2] of 520 nM. In other words, the sub-micromolar range.
